In the nanobody polyreactivity screen of Harvey et al. (2022):

Assay: yeast display, Sf9 membrane polyspecificity reagent, FACS + sequencing; frameworks hold sequencing errors
In short: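 Using colony PCR, genes from sorted yeast display clones were amplified, then sequenced on MiSeq at 2 × 250 and filtered by CDR length. The clones had been stained with 10% biotinylated, detergent-solubilized Sf9 membrane reagent for 1 hour at 4 °C and sorted by FACS into low and high (top ~1%) gates on anti-HA and streptavidin fluorescence. Polyreactivity labels come from the gate of origin.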

Row | Sequence | polyreactivity (PSR sort gate)
1 | QVQLVESGGGLVQAGGSLRLSCAASGSTFPSYAMGWYRQAPGKERELVAAINSGGGTNYADSVKGRFTISRDNAKNTVYLQINSLKPEDTAVFYCAKSRYDYTKTEGVYWGQGTQVTVSS | low polyreactivity
2 | QVQLVESGGGLVQAGGSLRLSCAASGSTFPSYAMGWYRQAPGKERELVAVITSGGRTYYADSVKGRFTISRDNAKNTVYLQMNSLKPEDTAVYYCAARGHRGYQGYDYWGQGTPVTVSS | high polyreactivity
3 | QVQLVESGGGLVQAGGSLRLSCAASGSTFPSYTMGWYRQAPGKERELVAAITLSGGSTYYADSVNGRFTISRDNAKYTVYLQMNSLKPSDTAVYYCAAYSQRGYYWGQGTQVTVSS | low polyreactivity
4 | QVQLVESGGGLVQAGGSLRLSCAASGSTFPTYAMGWYRQAPGKERELVAAITRGGRTYYADSVKGRFTISRDNAKNTVYLQMNSLKPEDTAVYYCAAVYYGAAQYNYWGQGTQVTVSS | high polyreactivity
5 | QVQLVESGGGLVQAGGSLRLSCAASGSTFPVYAMGWYRQAPGKERELVAAISRSGASTYYADSVKGRFTISRDNAKNTVYLQMNSLKPEDTAVYYCARGYQGRLKYEYWGQGTQVTVSS | low polyreactivity
6 | QVQLVESGGGLVQAGGSLRLSCAASGSTFPVYAMGWYRQAPGKERELVASLSSGAETNYADSVKGRFTISRDNAKNTVYLQLISLTPEDTAVYYCAATVPLRTIRPRSYGYWGQGTQVTVSS | low polyreactivity
7 | QVQLVESGGGLVQAGGSLRLSCAASGSTFPWNAMGWYRPAPGKERELVAAISSGGSTNYADSVKGRFTISRDNAKNTVYLQMNSLKPEDTAVYYCNAYYWSDSRGKYDYWGQGTQVTVSS | low polyreactivity
8 | QVQLVESGGGLVQAGGSLRLSCAASGSTFPWNAMGWYRQAPGKERELVAAINYGNGSTYYADSVKGRFTISRDNAKNTVYLQMNSLKPEDTAVYYCNADYTGTRTDSVTPEYEYCGQGTQVTVSS | low polyreactivity
9 | QVQLVESGGGLVQAGGSLRLSCAASGSTFPWNAMGWYSQAPGKEREMVAAINYGNGSTYYADSVKGRFTISRDNAKNTVYLQMNSLKPEDTAVYYCNADYTGTRTDSVSPEYEYWGQGTQVTVSS | low polyreactivity
10 | QVQLVESGGGLVQAGGSLRLSCAASGSTFPYNAMGSYRQAPGKERELVAAISSSGGRTYYADSVKGRFTISRDTAKNTVYLQMNSLKPEDTAVYYCNAAYYYTYGYWGQGTQVTVSS | high polyreactivity
11 | QVQLVESGGGLVQAGGSLRLSCAASGSTFPYNAMGWYRPAPGKERELVAAISSGGITYYADSVKGRFTISRDNAKNTVYLQMNSLIPEDTAVYYCAATVLGDYEYWGQGTQVTVSS | low polyreactivity
12 | QVQLVESGGGLVQAGGSLRLSCAASGSTFPYNAMGWYRQAPGKERELLAAISWRGGRTYYADSVKGRFTISRDNAKNTVYLQMNSLKPEYTGVFYCAVVLSTYSYADYDYWGQGTHVTVSS | high polyreactivity
13 | QVQLVESGGGLVQAGGSLRLSCAASGSTFPYPYTMGWYRQAPGKERELVAVNSRTGGSTFYADSVKGRFTISRDNAKNTVYFQMNSLKPEDTAVYYCAARRDGWTFWKYDYWGQGTQVTVSS | high polyreactivity
14 | QVQLVESGGGLVQAGGSLRLSCAASGSTFPYYAMGWYRQAPGKEREFVAAISSSGGSTYYADSVKWRFTISRDNAKNTVYLQMNSLKPEDTAVYYCAAQGARRNYYRYGTYTNRRYDYWGQGTQVTVSS | high polyreactivity
15 | QVQLVESGGGLVQAGGSLRLSCAASGSTFPYYAMGWYRQAPGKERELVAVITSSGSRTYYADSVKGRFTISRDNAKNTVYLPMNSLKPEDTAVYYCARDTRYYLPYRSQYDYWGQGTQVTVSS | high polyreactivity
16 | QVQLVESGGGLVQAGGSLRLSCAASGSTFQDNAMGWYRQAPGKERELVAVITRTGGDTNYADSVKGRFTISRDNAKNTVYLQMNSLKPEDTAVYYCAADNVYVTWFYYWGQGTQVTVSS | low polyreactivity
17 | QVQLVESGGGLVQAGGSLRLSCAASGSTFQFYALGWYRQAPGKERELVAAISVSGDRTYYADSVKGRFTISRDYAKNTVYLQMNSLKPEDTAVYYCAASIWHFEVVSWYLYDYWGQGTQVTVSS | high polyreactivity
18 | QVQLVESGGGLVQAGGSLRLSCAASGSTFQFYAMGWYRQAPGKERELVAAISVSGDRTYYADSVKGRFTISRDNAKNTVYLQMNSLKPEDTAVYYCAARYGPFKRRFDYWGQGTQVTVSS | high polyreactivity
19 | QVQLVESGGGLVQAGGSLRLSCAASGSTFQGYAMGRYRQAPGKERELVAGITGSGGSSYYADSVKGRFTISRDNAKNTVYLQMNSLKPEDTAVYYCAARYYQSYYYKYYYWGQGTQVTVSS | high polyreactivity
20 | QVQLVESGGGLVQAGGSLRLSCAASGSTFQGYTMGWYRQAPGKERELVAAISVRRGITYYADSVKGRFTISRDNAKNTVYLQMNSLKPEDTAVYYCNAYYYRPYGNKYGYWGQGTQVTVSS | high polyreactivity
21 | QVQLVESGGGLVQAGGSLRLSCAASGSTFQLYAMGWYRQAPGKERELVAGISRDGSTYYADSVKGRFTISRDNAKNTVYLQMNSLKPEDTAVYYCAAKYYGNKRDLYYWGQGTQVTVSS | low polyreactivity
22 | QVQLVESGGGLVQAGGSLRLSCAASGSTFQLYDMGWYRQEPGKERELVAGISRDGSTYYADSVKGRFTISRDNAKNTVYLLMNSLKPEDTAVYYCAAKFYGNKRDLYYWGQGTQVTVSS | low polyreactivity

Row | Sequence | polyreactivity (PSR sort gate)
23 | QVQLVESGGGLVQAGGSLRLSCAASGSTFQLYSMGWYRQAPGKERELVAAIRWRGGSTYYADSVKGRFTISRDNAKNTVYLQMNSLKPEDTAFYYCAAVGYNYNVEYYYWGQGTQVTVSS | high polyreactivity
24 | QVQLVESGGGLVQAGGSLRLSCAASGSTFQNNAMGWYRQAPGKERELVATISRRGGSTYYADSVKGRFTISRDIAKNTVYLQMNSLKPEDTAVYYCTGRDYWGQGTQVTVSS | high polyreactivity
25 | QVQLVESGGGLVQAGGSLRLSCAASGSTFQPYAMGWSRQAPGKERECVATISGSAGSTYYADSVKGRFKISRDNAKNTVYLQMNSLKPEDTAVYYCKAESPEGYRLLDYWGQGTQVTVSS | low polyreactivity
26 | QVQLVESGGGLVQAGGSLRLSCAASGSTFQPYAMGWYRPAPGKERELVAAIRYSGGITYYADSVKGRFTISRDNAKNSVYLQMNSLKPEDTAVYYCAAYGFYGGDYWGQGTQVTVSS | high polyreactivity
27 | QVQLVESGGGLVQAGGSLRLSCAASGSTFQRYAMGWYRQAPGKERELVAAINKSGGTTYYADSVKGRFTISRDNAKNTVYLLMNSLKPEDTAVYYCATDNPVVYQPGNMDYWGQGTQVTVSS | low polyreactivity
28 | QVQLVESGGGLVQAGGSLRLSCAASGSTFQRYAMGWYRQAPGKERELVAVITNGGSTKYADSVKGRFTISRDNAKNTVYLQMNSLKPEDTAVYYCAAGLRSWSTGLWYGYWGQGTQVTVSS | high polyreactivity
29 | QVQLVESGGGLVQAGGSLRLSCAASGSTFQRYTMGWYRQPPGKERELVAAISQSGGRTYYADSVKGRFTISRDNAKNTVYLQMNSLKPEDTAVYYCNAASRTKFDYWGQGTQVTVTS | high polyreactivity
30 | QVQLVESGGGLVQAGGSLRLSCAASGSTFQSNAMGWYRQAPGKERELVATISWSGGITYADSVKGRFTISRDNAKNTVYLQMNSLKPEDNAVHYFTDPDFDYWGQGTQVTLSS | low polyreactivity
31 | QVQLVESGGGLVQAGGSLRLSCAASGSTFQSNAMGWYRQAPGKERELVATITQSGATTYYADSVKGRFTISRDNAKNTVYLQMNSLKPEDTAVYYCNVDTYQKRWFWLDLDGGYWGQGTQVTVSS | low polyreactivity
32 | QVQLVESGGGLVQAGGSLRLSCAASGSTFQSYTMGWYRQAPGKERELVAGISRSGGSTYYADSVKGRFTISRDNAKNTVYLQMNSLKPEDTAVYYCAAAFYGRWGGFDYWGQGTQVTVSS | high polyreactivity
33 | QVQLVESGGGLVQAGGSLRLSCAASGSTFQTYAMGGYRQAPGKEREFVAAITSGGSTNYADSVKGRFTISRDNAKNTVYLQMNSLKPEDTAVYYCAVRQIYQTSDHRLQYDYWGQGTQVTVSS | low polyreactivity
34 | QVQLVESGGGLVQAGGSLRLSCAASGSTFQTYAMGWYRQAPGKERELVAAITYGGSTNYADSVKGRFTMSRANAKNTVYLLMNSLKPEDTAVYYCAARDGDQRPRLRYDYWAQGTQVTVSS | low polyreactivity
35 | QVQLVESGGGLVQAGGSLRLSCAASGSTFQVYAMGWYRPAPRKERELVATIRRTGGSTYYADSVKGRFTISRDNAKNTVYLQMNSLKPEDTAVYYCAARTYGGIVLRLDYWGQGTQVTVSS | high polyreactivity
36 | QVQLVESGGGLVQAGGSLRLSCAASGSTFQVYAMGWYRQAPGKERELVAAISNGGRTNYADSVKGRFTISRDNAKNTVYLLMNSLKPEDTAVYYCNADQVWWSFDRVLVGYEYWGQGTQVTVSS | low polyreactivity
37 | QVQLVESGGGLVQAGGSLRLSCAASGSTFQVYGMGWYRQAPGKERELGAAISRSGGRTYYADSVKGRFTISRDNAKNTVYLQMNSLKPEDTAVYYCNAPISYYDEYYYWGQGTQVTVSS | high polyreactivity
38 | QVQLVESGGGLVQAGGSLRLSCAASGSTFQWNAMGWYRQAPGKERELVAAISKSGGRTYYADSVKGRFTISRDNAKNTVYLQMNSLKPEDTAVYYCNALGSLDGRYGYWGQGTQVTVSS | high polyreactivity
39 | QVQLVESGGGLVQAGGSLRLSCAASGSTFQYNAMGWYRQAPGKERELVAAISLSGGSTYYADSVKGRFTISRDNAKNTVYLQMNSLKPEDTAVYYCATEYYVYDYYYWAWYGYEYWGQGTQVTVSS | high polyreactivity
40 | QVQLVESGGGLVQAGGSLRLSCAASGSTFQYYAMGWYRQAPGKEGELVATINSGGSTNYADSVKGRFTISRDNAKNTVYLQMNSLKPEDTAVYYCARRVRYKHYDYWGQGTQVTVSS | high polyreactivity
41 | QVQLVESGGGLVQAGGSLRLSCAASGSTFQYYAMGWYRQAPGKERELVAAITHSGTRTYYADSVKGRFTISRDNAKNTVYLQMNSLKPEDTAVYYCAARGYGKYDYWGQGTQVTVSS | high polyreactivity
42 | QVQLVESGGGLVQAGGSLRLSCAASGSTFQYYAMGWYRQAPGKERELVARISDSSANTYYADSVKGRFTISRDNAKNTVYLQMNSLKPEDTAVYYCAASVPYKFYSVVSVRYEYWGQGTQVTVSS | low polyreactivity
43 | QVQLVESGGGLVQAGGSLRLSCAASGSTFQYYAMGWYRQAPGKERELVASISLSGTSTYYADSVKGRFTISRDNAKNTVYLQMNSLKPEDTAVYYCAADIVPWWASFLYDGEDYWGQGTQVTVSS | low polyreactivity
